Data taken from patent publication US20160152995A1, “METHODS AND COMPOSITIONS TO IMPROVE THE SPREAD OF CHEMICAL SIGNALS IN PLANTS” (PIONEER HI-BRED INTERNATIONAL, INC., priority 2013, published 2016).

System: E. coli assay strain Km3
Test: Liquid B-galactosidase assays of chlorsulfuron repressor hits (induction and repression)
Details: CsL4.2 hits; for F. IND = fold induction (IND/REP) (B-galactosidase): 20 ppb Cs vs no inducer; for IND = induction with 20 ppb CS (B-galactosidase) / REP = repression in absence of inducer (B-galactosidase): liquid B-galactosidase assay; for REP = repression in absence of inducer (B-galactosidase): no inducer
Method: In order to create new diversity for shuffling the top clone from CsL3 was subjected to error prone PCR mutagenesis using Mutazyme (Stratagene). The mutated PCR product encoding the CsR ligand binding domain was inserted into library expression vector pVER7334 as a Sac1 to Asc1 fragment, transformed into library strain Km3 and plated onto LB+40 ug/ml Kanamycin and 50 ug/ml Carbenecillin. Approximately 10,000 colonies were then replica plated onto M9 Xgal assay medium +/−20 ppb Cs. Putative hits were then re-arrayed and replica plated onto the same assay medium. Performance was gauged by the level of blue colony color after 24 hrs incubation on inducer (induction) and 72 hrs incubation without inducer (repression). The top hits were then subjected to liquid B-galactosidase assays for quantitative assessment (Table 21).
Seventh round library CsL4.2 was designed based on the best diversity from CsL3 and CsL3-MTZ library screens (Table 14). The library was assembled with oligonucleotides shown below in Table 22. The first and last primers were used as rescue primers. CsL4.2 included a C-terminal 6×His-tag extension to facilitate protein purification. The library was assembled and cloned into vector pVER7334 Sac1 to Asc1, transformed into library assay strain Km3 and plated onto LB+40 ug/m1 Kanamycin and 50 ug/ml carbenecillin. Approximately 8,000 colonies were re-arrayed into 384-well format and replica plated onto M9 Xgal assay medium +/−2 ppb Cs. Putative hits were re-arrayed in 96-well format onto the same media for re-testing. Confirmed hits were then tested for induction and repression aspects in liquid culture using B-galactosidase assays.
Mutagenesis reactions were transformed into E. coli assay strain Km3 and plated onto LB+50 ug/ml Carbenecillin. Colonies were then re-arrayed into 384 well format and replica plated onto M9 Xgal assay medium +/−5 ppb Chlorsulfuron. Putative hits were then re-arrayed and analyzed by B-galactosidase assays relative to the parent clones (FIG. 10).

B1: CsL4.2-22 (protein)
chain: MARLDKSKVINSALELLNEVGIEGLTTRKLAQKLGVEQPTLYWHVKNKRALLDALAIEMHDRHQTHYLPLEGESWQDFLRNFAKSMRRALLSHRDGAKIALGTRWTEQQYETAENMLAFLTQQGFSLENALYATDAVRVFTLGAVLLDQEQQVAKEERETPTPDSMPPLLRQAWELKDHQGAEPAFLFGLELIIAGLEKQLKRESGSHHHHHH
modifications: Sulfonylurea responsive repressor
- F. IND = fold induction (IND/REP) (B-galactosidase): 20.8
- IND = induction with 20 ppb CS (B-galactosidase): 5.4
- REP = repression in absence of inducer (B-galactosidase): 0.3

B2: CsL4.2-23 (protein)
chain: MARLDKSKVINSALELLNEVGIEGLTTRKLAQKLGVEQPTLYWHVKNKRALLDALAIEMMDRHQTHYLPLEGESWQDYLRNFAKSMRCALLSHRDGAKVALGTRWTEQQYETAENMLAFLTQQGFSLENALYATSAVRVFTLGAVLLDQEQQVAKEERETPTPDRMPPLLRQAWELKVHQGAEPAFLFGLELIIAGLEKQLKRESGSHHHHHH
modifications: Sulfonylurea responsive repressor
- F. IND = fold induction (IND/REP) (B-galactosidase): 10.5
- IND = induction with 20 ppb CS (B-galactosidase): 10.4
- REP = repression in absence of inducer (B-galactosidase): 1.0

B3: CsL4.2-30 (protein)
chain: MARLDKSKVINSALELLNEVGIEGLTTRKLAQKLGVEQPTLYWHVKNKRALLDALAIEMHDRHQTHYLPLEGESWQDFLRNFAKSMRRALLSHRDGAKVALGTRWTEQQYETAENMLAFLTQQGFSLENALYATSAVRVFTLGAVLLDQEGQVANEERETPTPDSMPPLLRQAWELKVHQGAEPAFLFGLELIIAGLEKQLKRESGSHHHHHH
modifications: Sulfonylurea responsive repressor
- F. IND = fold induction (IND/REP) (B-galactosidase): 10.8
- IND = induction with 20 ppb CS (B-galactosidase): 4.9
- REP = repression in absence of inducer (B-galactosidase): 0.5

B4: CsL4.2-17 (protein)
chain: MARLDKSKVINSALELLNEVGIEGLTTRKLAQKLGVEQPTLYWHVKNKRALLDALAIEMMDRHQTHYLPLEGESWQDYLRNFAKSMRCALLSHRDGAKVALGTRWTEQQYETAENMLAFLTQQGFSLENALYATSAVRVFTLGAVLLDQEQQVAKEERETPTTDSMPPLLRQAWELKVHQGAEPAFLFGLELIIAGLEKQLKRESGSHHHHHH
modifications: Sulfonylurea responsive repressor
- F. IND = fold induction (IND/REP) (B-galactosidase): 9.7
- IND = induction with 20 ppb CS (B-galactosidase): 3.1
- REP = repression in absence of inducer (B-galactosidase): 0.3

B5: CsL4.2-26 (protein)
chain: MARLDKSKVINSALELLNEVGIEGLTTRKLAQKLGVEQPTLYWHVKNKRALLDALAIEMHDRHQTHYLPLEGESWQDYLRNFAKSMRCALLSHRDGAKVSLGTRWTEQQYETAENMLAFLTQQGFSLENALYATSAVRVFTLGAVLLDQEQQVAKEERETPTPDRMPPLLRQAWELKVHQGAEPAFLFGLELIIAGLEKQLKRESGSHHHHHH
modifications: Sulfonylurea responsive repressor
- F. IND = fold induction (IND/REP) (B-galactosidase): 10.6
- IND = induction with 20 ppb CS (B-galactosidase): 3.1
- REP = repression in absence of inducer (B-galactosidase): 0.3

B6: CsL4.2-08 (protein)
chain: MARLDKSKVINSALELLNEVGIEGLTTRKLAQKLGVEQPTLYWHVKNKRALLDALAIEMMDRHQTHYLPLEGESWQDFLRNFAKSMRRALLSHRDGAKVALGTRWTEQQYETAENMLAFLTQHGFSLENALYATDAVRVFTLGAVLLDQEQQVAKEERETPTPDSMPPLLRQAWELKVHQGAEPAFLFGLELIIAGLEKQLKRESGSHHQHHH
modifications: Sulfonylurea responsive repressor
- IND = induction with 20 ppb CS (B-galactosidase): 10.7
- REP = repression in absence of inducer (B-galactosidase): 0.7

B7: CsL4.2-07 (protein)
chain: MARLDKSKVINSALELLNEVGIEGLTTRKLAQKLGVEQPTLYWHVKNKRALLDALAIEMHDRHQTHYLPLEGESWQDYLRNFAKSMRCALLSHRDGAKIALGTRWTEQQYETAENMLAFLTQQGFSLENALYATDAVRVFTLGAVLLDQEQQVAKEERETPTPDSMPPLLRQAWELKVHQGAEPAFLFGLELIIAGLEKQLKRESGSHHHHHH
modifications: Sulfonylurea responsive repressor
- F. IND = fold induction (IND/REP) (B-galactosidase): 18.9
- IND = induction with 20 ppb CS (B-galactosidase): 6.5
- REP = repression in absence of inducer (B-galactosidase): 0.3

B8: CsL4.2-04 (protein)
chain: MARLDKSKVINSALELLNEVGIEGLTTRKLAQKLGVEQPTLYWHVKNKRALLDALAIEMHDRHQTHYLPLEGESWQDFLRNFAKSMRCALLSHRDGAKVALGTRWTEQQYETAENMLAFLTQQGFSLENALYATDAVRVFTLGAVLLDQEQQVANEGRETPTTDSMPPLLRQAWELKEHQGAEPAFLFGLELIIAGLEKQLKRESGSHHHHHH
modifications: Sulfonylurea responsive repressor
- F. IND = fold induction (IND/REP) (B-galactosidase): 10.2
- IND = induction with 20 ppb CS (B-galactosidase): 4.3
- REP = repression in absence of inducer (B-galactosidase): 0.4

B9: CsL4.2-16 (protein)
chain: MARLDKSKVINSALELLNEVGIEGLTTRKLAQKLGVEQPTLYWHVKNKRALLDALAIEMMDRHQTHYLPLEGESWQDYLRNFAKSMRCALLSHRDGAKVSLGTRWTEQQYETAENMLAFLTQQGFSLENALYATDAVRVFTLGAVLLDQEGQVANEERETPTPDRMPPLLRQAWELKVHQGAEPAFLFGLELIIAGLEKQLKRESGSHHHHHH
modifications: Sulfonylurea responsive repressor
- F. IND = fold induction (IND/REP) (B-galactosidase): 15.2
- IND = induction with 20 ppb CS (B-galactosidase): 3.8
- REP = repression in absence of inducer (B-galactosidase): 0.3

B10: CsL4.2-28 (protein)
chain: MARLDKSKVINSALELLNEVGIEGLTTRKLAQKLGVEQPTLYWHVKNKRALLDALAIEMMDRHQTHYLPLEGESWQDYLRNFAKSMRCALLSHRDGAKVALGTRWTEQQYETAENMLAFLTQQGFSLENALYATSAVRVFTLGAVLLDQEQQVAKQERETPTPDSMPPLLRQAWELKVHQGAEPAFLFGLELIIAGLEKQLKRESGSHHHHHH
modifications: Sulfonylurea responsive repressor
- F. IND = fold induction (IND/REP) (B-galactosidase): 11.3
- IND = induction with 20 ppb CS (B-galactosidase): 5.3
- REP = repression in absence of inducer (B-galactosidase): 0.5

B11: CsL4.2-21 (protein)
chain: MARLDKSKVINSALELLNEVGIEGLTTRKLAQKLGVEQPTLYWHVKNKRALLDALAIEMMDRHGTHYLPLEGESWQDFLRNYAKSMRRALLSHRDGAKVALGTRWTEQQYETAENMLACLTQQGFSLENALYATSAVRVFTLGAVLLDQEQQVANEERETPTTDSMPPLLRQAWELKVHQGAEPAFLFGLELIIAGLEKQLKRESGSHHHHHH
modifications: Sulfonylurea responsive repressor
- F. IND = fold induction (IND/REP) (B-galactosidase): 13.2
- IND = induction with 20 ppb CS (B-galactosidase): 3.2
- REP = repression in absence of inducer (B-galactosidase): 0.2

B12: CsL4.2-24 (protein)
chain: MARLDKSKVINSALELLNEVGIEGLTTRKLAQKLGVEQPTLYWHVKNKRALLDALAIEMHDRHQTHYLPLEGESWQDYLRNFAKSMRCALLSHRDGAKVALGTRWTEQQYETAENMLAFLTQQGFSLENALYATSAVRVFTLGAVLLDQEGQVANEERETPTPDSMPPLLRQAWELKVHQGAEPAFLFGLELIIAGLEKQLKRESGSHHHHHH
modifications: Sulfonylurea responsive repressor
- F. IND = fold induction (IND/REP) (B-galactosidase): 14.3
- IND = induction with 20 ppb CS (B-galactosidase): 5.4
- REP = repression in absence of inducer (B-galactosidase): 0.4

B13: CsL4.2-01 (protein)
chain: MARLDKSKVINSALELLNEVGIEGLTTRKLAQKLGVEQPTLYWHVKNKRALLDALAIEMHDRHQTHYLPLEGESWQDYLRNFAKSMRRALLSHRDGAKVALGTRWTEQQYETAENMLAFLTQQGFSLENALYATDAVRVFTLGAVLLDQEGQVAKEERETPTTDSMPPLLRQAWELKVHQGAEPAFLFGLELIIAGLEKQLKRESGSHHHHHH
modifications: Sulfonylurea responsive repressor
- F. IND = fold induction (IND/REP) (B-galactosidase): 9.8
- IND = induction with 20 ppb CS (B-galactosidase): 3.8
- REP = repression in absence of inducer (B-galactosidase): 0.4

B14: CsL4.2-15: top CsR hit of library CsL4.2 (protein)
chain: MARLDKSKVINSALELLNEVGIEGLTTRKLAQKLGVEQPTLYWHVKNKRALLDALAIEMHDRHQTHYLPLEGESWQDFLRNFAKSMRRALLSHRDGAKVSLGTRWTEQQYETAENMLAFLTQQGFSLENALYATDAVRVFTLGAVLLDQEQQVAKEERETPTTDSMPPLLRQAWELKVHQGAEPAFLFGLELIIAGLEKQLKRESGS
modifications: Sulfonylurea responsive repressor
- IND = induction with 20 ppb CS (B-galactosidase): 4.0
- REP = repression in absence of inducer (B-galactosidase): 0.2
